US20180207269A1

Experiments:
[1] = biological target: CD166 (activated leukocyte cell adhesion molecule, ALCAM) on human cells (human) (UniProt Q13740); test: flow cytometry, Wild-Type H9 cells, double staining anti-CD166-PE + ILT3.Fc-FITC
[2] = biological target: CD166 (activated leukocyte cell adhesion molecule, ALCAM) on human cells (human) (UniProt Q13740); test: flow cytometry, H9 cells infected with control adeno-virus (Adeno-Control) for 7 days, double staining anti-CD166 PE + ILT3Fc-FITC
[3] = biological target: CD166 (activated leukocyte cell adhesion molecule, ALCAM) on human cells (human) (UniProt Q13740); test: cell-based or functional assay
[4] = biological target: CD166 (activated leukocyte cell adhesion molecule, ALCAM) on human cells (human) (UniProt Q13740); test: flow cytometry, Jurkat cells nucleofected with CD166 over-expression plasmid, double staining anti-CD166 APC + ILT3Fc-FITC
[5] = biological target: CD166 (activated leukocyte cell adhesion molecule, ALCAM) on human cells (human) (UniProt Q13740); test: flow cytometry, CD3+ T cells triggered with PWM (0.05ug/ml) in the presence of ILT3Fc (50 ug/mL), stained with ILT3Fc-FITC
[6] = biological target: CD166 (activated leukocyte cell adhesion molecule, ALCAM) on human cells (human) (UniProt Q13740); test: flow cytometry, ILT3Fc-FITC on H9 cells with CD166 knocked down by shRNA adeno-virus
[7] = biological target: CD166 (activated leukocyte cell adhesion molecule, ALCAM) on human cells (human) (UniProt Q13740); test: flow cytometry, CD4-gated T helper cells of a healthy donor (low or no ILT3L)
[8] = biological target: CD166 (activated leukocyte cell adhesion molecule, ALCAM) on human cells (human) (UniProt Q13740); test: flow cytometry, CD3+ T cells triggered with CD3/CD28 (5ug/ml, 1ug/ml) in the presence of ILT3Fc (50 ug/mL), stained with ILT3Fc-FITC
[9] = biological target: CD166 (activated leukocyte cell adhesion molecule, ALCAM) on human cells (human) (UniProt Q13740); test: flow cytometry, Jurkat cells nucleofected with control vector, double staining anti-CD166 APC + ILT3Fc-FITC
[10] = biological target: CD166 (activated leukocyte cell adhesion molecule, ALCAM) on human cells (human) (UniProt Q13740); test: flow cytometry, CD3+ T cells, Control Treatment, cultured w/o ILT3Fc, stained with ILT3Fc-FITC
[11] = biological target: CD166 (activated leukocyte cell adhesion molecule, ALCAM) on human cells (human) (UniProt Q13740); test: flow cytometry, H9 cells with CD166 knocked down by CD166 shRNA adeno-virus (Adeno-siCD166) for 7 days, double staining anti-CD166 PE + ILT3Fc-FITC
[12] = biological target: CD166 (activated leukocyte cell adhesion molecule, ALCAM) on human cells (human) (UniProt Q13740); test: flow cytometry, CD3+ T cells, Control Treatment, cultured with ILT3Fc (50 ug/mL), stained with ILT3Fc-FITC
[13] = biological target: CD166 (activated leukocyte cell adhesion molecule, ALCAM) on human cells (human) (UniProt Q13740); test: flow cytometry, CD3+ T cells triggered with PWM (0.05ug/ml) w/o ILT3Fc, stained with ILT3Fc-FITC
[14] = biological target: CD166 (activated leukocyte cell adhesion molecule, ALCAM) on human cells (human) (UniProt Q13740); test: flow cytometry, CD166 KO H9 cells (CD166 gene knocked out: control cells without the target), double staining anti-CD166-PE + ILT3.Fc-FITC
[15] = biological target: CD166 (activated leukocyte cell adhesion molecule, ALCAM) on human cells (human) (UniProt Q13740); test: flow cytometry, ILT3Fc-FITC on control-virus infected H9 cells
[16] = biological target: CD166 (activated leukocyte cell adhesion molecule, ALCAM) on human cells (human) (UniProt Q13740); test: flow cytometry, CD3+ T cells triggered with CD3/CD28 (5ug/ml, 1ug/ml) w/o ILT3Fc, stained with ILT3Fc-FITC
[17] = biological target: CD166 (activated leukocyte cell adhesion molecule, ALCAM) on human cells (human) (UniProt Q13740); test: flow cytometry, CD3-gated T cells of a healthy donor (low or no ILT3L)
[18] = biological target: CD166 (activated leukocyte cell adhesion molecule, ALCAM) on human cells (human) (UniProt Q13740); test: flow cytometry, Jurkat cells pre-incubated with J4-81, then ILT3Fc-FITC
[19] = biological target: CD166 (activated leukocyte cell adhesion molecule, ALCAM) on human cells (human) (UniProt Q13740); test: flow cytometry, Jurkat cells pre-incubated with CD166-Fc, then ILT3Fc-FITC
[20] = biological target: CD166 (activated leukocyte cell adhesion molecule, ALCAM) on human cells (human) (UniProt Q13740); test: flow cytometry, Jurkat cells pre-incubated with CD6-Fc, then ILT3Fc-FITC

ILT3Fc (water-soluble recombinant protein: extracellular domain of human ILT3 affixed to the Fc portion of an immunoglobulin) (from UniProt Q8NHJ6 22-259; P01857 104-330) (Fc fusion)
% cells in lower left quadrant (CD166- / ILT3Fc-FITC-) [1]: 3.57%
% cells in lower right quadrant (CD166- / ILT3Fc-FITC+) [1]: 0.03%
% cells in upper left quadrant (CD166+ / ILT3Fc-FITC-) [1]: 22.3%
% cells in upper right quadrant (CD166+ / ILT3Fc-FITC+) [1]: 74.1%
% cells in lower left quadrant (CD166- / ILT3Fc-FITC-) [2]: 6.33%
% cells in lower right quadrant (CD166- / ILT3Fc-FITC+) [2]: 0.15%
% cells in upper left quadrant (CD166+ / ILT3Fc-FITC-) [2]: 47%
% cells in upper right quadrant (CD166+ / ILT3Fc-FITC+) [2]: 46.5%
inhibition of growth of tumor cell lines at 72 hours [3]: 50 to 90%
% cells in lower left quadrant (CD166- / ILT3Fc-FITC-) [4]: 13.4%
% cells in lower right quadrant (CD166- / ILT3Fc-FITC+) [4]: 1.08%
% cells in upper left quadrant (CD166+ / ILT3Fc-FITC-) [4]: 66.3%
% cells in upper right quadrant (CD166+ / ILT3Fc-FITC+) [4]: 19.2%
% cells stained with ILT3Fc-FITC [5]: 15.2%
percent of cells binding ILT3Fc [6]: < 20%
percent ILT3Fc binding [7]: 1%
% cells stained with ILT3Fc-FITC [8]: 20.4%
% cells in lower left quadrant (CD166- / ILT3Fc-FITC-) [9]: 30.6%
% cells in lower right quadrant (CD166- / ILT3Fc-FITC+) [9]: 1.08%
% cells in upper left quadrant (CD166+ / ILT3Fc-FITC-) [9]: 58%
% cells in upper right quadrant (CD166+ / ILT3Fc-FITC+) [9]: 10.2%
% cells stained with ILT3Fc-FITC [10]: 1.08%
% cells in lower left quadrant (CD166- / ILT3Fc-FITC-) [11]: 50%
% cells in lower right quadrant (CD166- / ILT3Fc-FITC+) [11]: 5.8%
% cells in upper left quadrant (CD166+ / ILT3Fc-FITC-) [11]: 26.7%
% cells in upper right quadrant (CD166+ / ILT3Fc-FITC+) [11]: 14.5%
% cells stained with ILT3Fc-FITC [12]: 0.8%
% cells stained with ILT3Fc-FITC [13]: 23.2%
% cells in lower left quadrant (CD166- / ILT3Fc-FITC-) [14]: 96.5%
% cells in lower right quadrant (CD166- / ILT3Fc-FITC+) [14]: 2.94%
% cells in upper left quadrant (CD166+ / ILT3Fc-FITC-) [14]: 0.1%
% cells in upper right quadrant (CD166+ / ILT3Fc-FITC+) [14]: 0.43%
percent of cells binding ILT3Fc [15]: 46%
% cells stained with ILT3Fc-FITC [16]: 26.9%
percent ILT3Fc binding [17]: 12%

anti-CD166 mAb J4-81 (antibody)
percent inhibition of ILT3Fc-FITC binding [18]: 28%

B1: human CD166Fc (Fc fusion, UniProt Q13740 28-526, looked up, not shown: a dimerising Fc or GST)
chain: WYTVNSAYGDTIIIPCRLDVPQNLMFGKWKYEKPDGSPVFIAFRSSTKKSVQYDDVPEYKDRLNLSENYTLSISNARISDEKRFVCMLVTEDNVFEAPTIVKVFKQPSKPEIVSKALFLETEQLKKLGDCISEDSYPDGNITWYRNGKVLHPLEGAVVIIFKKEMDPVTQLYTMTSTLEYKTTKADIQMPFTCSVTYYGPSGQKTIHSEQAVFDIYYPTEQVTIQVLPPKNAIKEGDNITLKCLGNGNPPPEEFLFYLPGQPEGIRSSNTYTLTDVRRNATGDYKCSLIDKKSMIASTAITVHYLDLSLNPSGEVTRQIGDALPVSCTISASRNATVVWMKDNIRLRSSPSFSSLHYQDAGNYVCETALQEVEGLKKRESLTLIVEGKPQIKMTKKTDPSGLSKTIICHVEGFPKPAIQWTITGSGSVINQTEESPYINGRYYSKIIISPEENVTLTCTAENQLERTVNSLNVSAISIPEHDEADEISDENREKVNDQA
percent inhibition of ILT3Fc-FITC binding [19]: 30%

B2: human CD6-Fc (Fc fusion, UniProt P30203 25-398, looked up, not shown: a dimerising Fc or GST)
chain: DQLNTSSAESELWEPGERLPVRLTNGSSSCSGTVEVRLEASWEPACGALWDSRAAEAVCRALGCGGAEAASQLAPPTPELPPPPAAGNTSVAANATLAGAPALLCSGAEWRLCEVVEHACRSDGRRARVTCAENRALRLVDGGGACAGRVEMLEHGEWGSVCDDTWDLEDAHVVCRQLGCGWAVQALPGLHFTPGRGPIHRDQVNCSGAEAYLWDCPGLPGQHYCGHKEDAGAVCSEHQSWRLTGGADRCEGQVEVHFRGVWNTVCDSEWYPSEAKVLCQSLGCGTAVERPKGLPHSLSGRMYYSCNGEELTLSNCSWRFNNSNLCSQSLAARVLCSASRSLHNLSTPEVPASVQTVTIESSVTVKIENKESRE
percent inhibition of ILT3Fc-FITC binding [20]: 49%
